This data set has as its target CA125 (carbohydrate antigen 125) (UniProt Q8WXI7 1-14451). Briefly: AuNP aggregation aptasensor (A660/A520); 200 nM aptamer, citrate AuNPs ~13 nm, NaCl 1 M stock added after binding; linear 15-160 U/mL, LOD 14.41 U/mL; 50 uL CA125 (15-160 U/mL) + 50 uL aptamer (200 nM), 30 min, room temperature; then 50 uL AuNPs 5 min, 10 uL 1 M NaCl 5 min; buffer and pH not stated. The note with it: protein: commercial; predicted stem-loop.

With TCACTATAGGGAGACAAGAATAAACGCTCAA (ssDNA) [CA125 aptamer (31-mer)], the binding result is given as “binds”.

Values taken from PMC11827763, “A Gold Nanoparticle-based Aptasensor for Specific Detection of CA125”.
